What is called Kd is the constant that tells how readily two partners part at equilibrium. Usually stoichiometry N stands for a count of units in the complex or per binding partner. In general, IC50 refers to the concentration needed to halve the response being measured. A lower IC50 goes with greater potency.

Bounds are passed on as bounds.

The target of one experiment is NprR. The settings on record: NprR and its cognate peptide NprX; cited from earlier work.
For experiment [1], the target named is PhrF* peptide (Bacillus subtilis) (UniProt P71001). The settings on record: cited from earlier work.
Another experiment has as its system PlcR. To be noted: SAXS, 2QFC, ref Declerck et al., 2007 (Suppl. ref 7); cited from earlier work.
Experiment [2] concerns the target Rap_(pLS20) (Bacillus subtilis plasmid pLS20). The experiment can be described thus: AUC; sedimentation equilibrium, apo Rap_(pLS20) at 4.5 to 25 μM; same conditions as the SV experiments; 7000 to 10 000 rpm.
Experiment [3] shares this target. In words: AUC; sedimentation equilibrium, Rap_(pLS20) (0–15 μM) with Phr*_(pLS20) at 1:3 stoichiometry (Rap:Phr*); same conditions as the SV experiments.
The target is the same in experiment [4]. The experiment can be described thus: SAXS; apo Rap_(pLS20) at 0.5 to 5 mg/ml (11.3–113 μM); 15 mM HEPES pH 7.5, 150 mM NaCl, 1 mM DTT; 293 K; volume fractions of dimer and foot-2-foot tetramer by OLIGOMER
Experiment [5] has the same target. In words: AUC; sedimentation velocity, apo Rap_(pLS20) at 4.5 and 25 μM; 20 mM Tris, 250 mM NaCl, 10 mM MgCl2, 1 mM EDTA, 0.1 mM β-mercaptoethanol, 1% glycerol, pH 7.4; 48 000 rpm.
For experiment [6] the target is unchanged. In words: AUC; sedimentation velocity, 4.5 μM Rap_(pLS20) with Phr*_(pLS20) at 4.5 μM or 15 μM; 20 mM Tris, 250 mM NaCl, 10 mM MgCl2, 1 mM EDTA, 0.1 mM β-mercaptoethanol, 1% glycerol, pH 7.4.
The target is the same in experiment [7]. In words: SAXS; Rap_(pLS20) at 0.5 to 5 mg/ml with 5-fold molar Phr*_(pLS20); 15 mM HEPES pH 7.5, 150 mM NaCl, 1 mM DTT; 293 K; volume fractions of dimer and foot-2-foot tetramer by OLIGOMER
Experiment [8] has the same target. In words: SEC; Superdex 200 increase 5/150 GL, 500 mM NaCl, 20 mM TRIS pH 8, 0.2 ml/min; proteins alone (1 mg/ml) and mixtures at 1:2, 1:4, 1:1 and 2:1 (Rco:Rap) incubated 30 min on ice; total protein 0.75–1.25 mg/ml; Phr* at 5:1 over Rap where added.
Experiment [9] concerns the target Rco_(pLS20) (Bacillus subtilis plasmid pLS20). The experiment is described as above.
The target in experiment [10] is Rap_(pLS20) (Bacillus subtilis plasmid pLS20). In words: fluorescence polarisation; equilibrium competition: native Phr*_(pLS20) 0.6–1250 μM against 10 μM Rap_(pLS20) and 50 nM 6-FAM-Phr*_(pLS20); 20 mM Tris pH 7.5, 150 mM NaCl, 1 mM DTT, 0.01% Triton X-100; 25°C. (In general: Fluorescence polarisation rises when a labelled molecule tumbles more slowly, as on binding a larger partner.)

For the molecule “SSKPDIVG [NprX, cognate peptide of NprR, eight amino acids (SSKPDIVG)]”, the Kd on NprR was 0.03 µM.

RapF (from UniProt P71002): the Kd in experiment [1] is 3.1 µM.

In the case of LPFEF [PapR], the “oligomerization state of PlcR with peptide” value in the experiment on PlcR is on record as “tetramers”.

In [2], Rap_(pLS20) (natural protein) showed a stoichiometry N of 2. Further, in [3], the stoichiometry N amounted to 4. Besides, in experiment [4], the dimer fraction at 0.5 mg/ml (11.3 μM) is 0.78, the dimer fraction at 5 mg/ml (0.11 mM) was found to be 0.48, the tetramer fraction at 0.5 mg/ml (11.3 μM) stood at 0.22 and the tetramer fraction at 5 mg/ml (0.11 mM) was 0.52. In experiment [5], this molecule displayed a percent as a single species (dimer) at 4.5 μM greater than 96%, a percent tetramers at 4.5 μM of 1.1%, a percent tetramers at 25 μM of 3.6% and a stoichiometry N of 2. Moreover, the stoichiometry N in experiment [6] turned out to be 4. Moreover, in experiment [7], the percent tetramers above 2.5 mg/ml (57.7 μM) with Phr* (pLS20) was found to be 100% and the percent tetramers at 0.5 mg/ml (11.3 μM) with Phr* (pLS20) stood at 75%. Further, in experiment [8], the stoichiometry N was determined as 2.

For Rco_(pLS20) (natural protein), the stoichiometry N in experiment [9] stood at 4.

B1: Phr*_(pLS20) peptide (QKGMY) (peptide)
peptide: QKGMY
Turning to B1, in [10], the IC50 worked out at 26.7 µM and the dissociation constant (Kd) was determined as 7.42 µM.

The values are drawn from PMC7430634, “Inactivation of the dimeric RappLS20 anti-repressor of the conjugation operon is mediated by peptide-induced tetramerization” (Nucleic Acids Research, 2020).
